This data set has as its target dAPE1 C138A E96Q/D210N (crystallization) (human, UniProt P27695 44-318, E96Q;C138A;D210N;del1-43). The data set is described as follows: X-ray crystallography; 5 mM CaCl2 in reservoir; Anisotropy: 50 mM HEPES pH 7.4, 100 mM KCl, 5% glycerol, 20 mM EDTA, 37 C, 10 nM DNA. Crystals: 7-14% PEG 20K, 100 mM sodium citrate pH 5.0, 15% glycerol, 5 mM. To be noted: protein: recombinant; tags: untagged; nicked duplex, blunt ends; 8-oxoG opposite C (strand 1 position 12).

Chain of dAPE1 C138A E96Q/D210N (crystallization) (P27695 44-318 E96Q/C138A/D210N): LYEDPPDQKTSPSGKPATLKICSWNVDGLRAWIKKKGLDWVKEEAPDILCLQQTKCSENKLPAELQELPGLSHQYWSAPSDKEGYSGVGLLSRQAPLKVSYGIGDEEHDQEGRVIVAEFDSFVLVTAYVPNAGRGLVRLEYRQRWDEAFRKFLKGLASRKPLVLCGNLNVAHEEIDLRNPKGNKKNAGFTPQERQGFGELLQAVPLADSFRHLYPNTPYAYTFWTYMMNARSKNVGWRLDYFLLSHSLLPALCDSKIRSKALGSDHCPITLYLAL

B1: 21-mer nicked 3'-8-oxoG opposite C (crystal) (mixed)
DNA 1: GGATCCGTCGACCGCATCAGC
DNA 2: GCTGATGCGG
DNA 3: TCGACGGATCC
modifications: 8-oxoG at 3' end of strand 2 (position 10, written G); 5'-phosphate on strand 3
Consider B1, for which the binding result is listed as “binds”.

Values taken from PMC9458457, “Processing oxidatively damaged bases at DNA strand breaks by APE1”.
